In US20100310646A1 (AARHUS UNIVERSITET, published 2010):

Key:
[1] = target: T1, human pregnancy-associated plasma protein-A (PAPP-A) (human, UniProt Q13219 82-1627); assay: ELISA
T1 construct: Recombinant, from 293T cells; also called human PAPP-A; full-length PAPP-A

human PAPP-A(D1484A) = human PAPP-A(D1484A) (human, UniProt Q13219 82-1627); assay: ELISA, PAPP-A mutant captured with polyclonal PAPP-A antibodies
Description: (§1) A, PAC1 binding to human PAPP-A/PAPP-A2 chimeras or truncated human PAPP-A variants analyzed by ELISA. Sequence derived from PAPP-A is shown by open bars, and absence of binding (−) or binding (+) is indicated. […] Samples with or without EDTA (10 mM) were injected (120 s) followed by dissociation (180 s) (solid lines). […] The absence of binding (−) or binding (+) is indicated. PAC5, which was used as a positive control, binds to an epitope of PAPP-A located N-terminal to CCP1.
(§2) Determination of antibody specificity and mapping of antibody binding—Mapping of antibody binding was carried out by ELISA using PAPP-A/PAPP-A2 chimeric proteins, and mutated variants of PAPP-A. The proteins were immobilized with polyclonal PAPP-A antibodies, and binding of phage antibodies were analyzed as detailed above.

human PAPP-A(D1502A) = human PAPP-A(D1502A) (human, UniProt Q13219 82-1627); assay: as above
Description: as §1, §2

human PAPP-A(D1499A) = human PAPP-A(D1499A) (human, UniProt Q13219 82-1627); assay: as above
Description: as §1, §2

[2] = target: T2, PA 1-950 (fragment of human PAPP-A, residues 1-950) (human, UniProt Q13219 82-1030); assay: binding of PAC5 to fragments of human PAPP-A
T2 sequence: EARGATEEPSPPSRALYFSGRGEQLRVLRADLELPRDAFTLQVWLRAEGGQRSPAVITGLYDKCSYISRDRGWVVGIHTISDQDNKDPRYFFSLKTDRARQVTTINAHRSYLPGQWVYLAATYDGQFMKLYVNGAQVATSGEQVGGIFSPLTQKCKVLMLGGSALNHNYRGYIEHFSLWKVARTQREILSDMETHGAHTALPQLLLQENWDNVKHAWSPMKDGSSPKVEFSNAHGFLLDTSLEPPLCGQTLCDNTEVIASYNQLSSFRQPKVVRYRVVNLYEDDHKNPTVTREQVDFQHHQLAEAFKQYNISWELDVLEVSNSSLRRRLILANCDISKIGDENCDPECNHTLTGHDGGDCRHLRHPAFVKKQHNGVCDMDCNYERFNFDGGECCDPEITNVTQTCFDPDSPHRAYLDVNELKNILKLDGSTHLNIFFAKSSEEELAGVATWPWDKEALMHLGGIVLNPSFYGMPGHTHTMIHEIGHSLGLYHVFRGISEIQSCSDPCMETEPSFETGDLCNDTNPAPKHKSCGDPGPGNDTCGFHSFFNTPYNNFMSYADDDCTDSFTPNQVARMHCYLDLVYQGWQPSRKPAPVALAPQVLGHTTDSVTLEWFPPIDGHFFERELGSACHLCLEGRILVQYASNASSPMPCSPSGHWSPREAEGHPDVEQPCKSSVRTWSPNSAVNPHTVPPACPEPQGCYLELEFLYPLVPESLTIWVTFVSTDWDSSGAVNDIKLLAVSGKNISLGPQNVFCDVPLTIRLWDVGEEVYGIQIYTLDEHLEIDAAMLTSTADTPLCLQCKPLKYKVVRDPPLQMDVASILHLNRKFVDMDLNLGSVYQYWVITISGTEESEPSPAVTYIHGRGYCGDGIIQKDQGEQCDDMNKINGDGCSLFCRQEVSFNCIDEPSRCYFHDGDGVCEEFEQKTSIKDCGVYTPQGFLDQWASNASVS

[3] = target: T3, PA 937-1547 (fragment of human PAPP-A, residues 937-1547) (human, UniProt Q13219 1017-1627); assay: binding of PAC5 to fragments of human PAPP-A
T3 sequence: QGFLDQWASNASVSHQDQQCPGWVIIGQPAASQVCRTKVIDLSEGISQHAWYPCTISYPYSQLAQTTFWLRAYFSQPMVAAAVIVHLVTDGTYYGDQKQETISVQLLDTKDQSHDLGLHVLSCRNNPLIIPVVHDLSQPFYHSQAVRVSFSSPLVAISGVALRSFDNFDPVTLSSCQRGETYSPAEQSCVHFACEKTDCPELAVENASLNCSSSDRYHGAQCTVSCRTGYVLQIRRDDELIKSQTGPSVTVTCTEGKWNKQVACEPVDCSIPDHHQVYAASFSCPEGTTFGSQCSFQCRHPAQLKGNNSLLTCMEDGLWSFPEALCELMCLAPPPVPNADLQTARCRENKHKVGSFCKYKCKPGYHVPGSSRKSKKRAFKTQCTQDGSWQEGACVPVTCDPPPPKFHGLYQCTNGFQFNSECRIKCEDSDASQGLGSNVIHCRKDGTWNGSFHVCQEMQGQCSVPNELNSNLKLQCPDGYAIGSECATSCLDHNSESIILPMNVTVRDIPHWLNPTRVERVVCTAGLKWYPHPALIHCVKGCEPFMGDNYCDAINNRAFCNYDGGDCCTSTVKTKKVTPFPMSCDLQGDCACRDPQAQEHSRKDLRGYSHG

[4] = target: T4, PA 1-599 (fragment of human PAPP-A, residues 1-599) (human, UniProt Q13219 82-679); assay: binding of PAC5 to fragments of human PAPP-A
T4 sequence: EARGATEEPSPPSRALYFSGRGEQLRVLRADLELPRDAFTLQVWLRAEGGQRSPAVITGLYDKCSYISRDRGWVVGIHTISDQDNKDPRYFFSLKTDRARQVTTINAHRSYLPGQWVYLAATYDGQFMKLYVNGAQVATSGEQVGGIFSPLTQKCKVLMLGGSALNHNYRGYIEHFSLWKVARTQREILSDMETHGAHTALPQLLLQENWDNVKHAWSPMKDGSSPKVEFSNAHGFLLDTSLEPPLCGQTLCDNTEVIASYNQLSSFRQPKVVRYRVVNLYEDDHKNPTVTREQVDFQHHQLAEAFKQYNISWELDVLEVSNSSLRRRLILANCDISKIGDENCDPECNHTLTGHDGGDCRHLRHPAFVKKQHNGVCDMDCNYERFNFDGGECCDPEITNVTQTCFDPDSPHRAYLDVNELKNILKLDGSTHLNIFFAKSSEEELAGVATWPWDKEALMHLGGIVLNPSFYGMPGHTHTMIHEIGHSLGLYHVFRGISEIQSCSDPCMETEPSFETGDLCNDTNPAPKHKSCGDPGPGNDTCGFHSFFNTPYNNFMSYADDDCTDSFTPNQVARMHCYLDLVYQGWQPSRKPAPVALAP

- binding result [1]: binds
- binding result (human PAPP-A(D1484A)): binds
- binding result (human PAPP-A(D1502A)): binds
- binding result (human PAPP-A(D1499A)): binds
- binding result [2]: binds
- binding result [3]: no binding
- binding result [4]: no binding
B1: PAC5 (PAPP-A non-exosite antibody, scFv) (scFv)
scFv: EVQLLESGGGLVQPGGSLRLSCAASGFTFSSYAMSWVRQAPGKGLEWVSAISPAGVMTQYADSVKGRFTISRDNSKNTLYLQMNSLRAEDTAVYYCAKQQGGFDYWGQGTLVTVSSGGGGSGGGGSGGGGSTDIQMTQSPSSLSASVGDRVTITCRASQSISSYLNWYQQKPGKAPKLLIYRASALQSGVPSRFSGSGSGTDFTLTISSLQPEDFATYYCQQPIARPPTFGQGTKVEIKRAAAHHHHHHGAAEQKLISEEDLNGAA
notes: Obtained by screening on full-length human PAPP-A and used as a control antibody in the scFv format; also called clone PAC5
